Experimental data as given in patent publication US20220048967A1 (published 2022).
Numbered stars: 1 amine (or outer) side, 2 acyl side, 3 side chain; on linkers, the order of the positions; unused ones are H or OH. Square brackets hold non-standard residues; d marks the D form. Side chains are listed from the residue outwards. Ends that are not written are not given here. * marks the point of attachment. C20 diacid = O=C(O)CCCCCCCCCCCCCCCCCCC(=O)*; γGlu = O=C(O)[C@H](CCC(=O)[*:2])N[*:1]; AEEA = NCCOCCOCC(=O)O; Aib = CC(C)(N)C(=O)O

Columns and labels:
[1] = target: Pro-Link-tagged Human GLP-1R (human, UniProt P43220 24-463); assay: cell-based or functional assay
human GLP-1 receptor = human GLP-1 receptor (human, UniProt P43220 24-463); assay: cell-based or functional assay

Binder | hGLP1R B-Arrestin2 % Top [1] [%] | hGLP1R B-Arrestin2 Rel EC50 [1] [nM] | hGLP1R GTPgS % Top (human GLP-1 receptor) [%] | hGLP1R GTPgS Rel EC50 (human GLP-1 receptor) [nM]
Y[Aib]EGTFTSDYSILLDKK([AEEA-AEEA-γGlu-C20 diacid])AQ[Aib]AFIEYLIAGGPSSGAPPPS-NH2 (N-terminus assumed; SMILES CC[C@H](C)[C@H](NC(=O)[C@H](CC(C)C)NC(=O)[C@H](Cc1ccc(O)cc1)NC(=O)[C@H](CCC(=O)O)NC(=O)[C@@H](NC(=O)[C@H](Cc1ccccc1)NC(=O)[C@H](C)NC(=O)C(C)(C)NC(=O)[C@H](CCC(N)=O)NC(=O)[C@H](C)NC(=O)[C@H](CCCCNC(=O)COCCOCCNC(=O)COCCOCCNC(=O)CC[C@H](NC(=O)CCCCCCCCCCCCCCCCCCC(=O)O)C(=O)O)NC(=O)[C@H](CCCCN)NC(=O)[C@H](CC(=O)O)NC(=O)[C@H](CC(C)C)NC(=O)[C@H](CC(C)C)NC(=O)[C@@H](NC(=O)[C@H](CO)NC(=O)[C@H](Cc1ccc(O)cc1)NC(=O)[C@H](CC(=O)O)NC(=O)[C@H](CO)NC(=O)[C@@H](NC(=O)[C@H](Cc1ccccc1)NC(=O)[C@@H](NC(=O)CNC(=O)[C@H](CCC(=O)O)NC(=O)C(C)(C)NC(=O)[C@@H](N)Cc1ccc(O)cc1)[C@@H](C)O)[C@@H](C)O)[C@@H](C)CC)[C@@H](C)CC)C(=O)N[C@@H](C)C(=O)NCC(=O)NCC(=O)N1CCC[C@H]1C(=O)N[C@@H](CO)C(=O)N[C@@H](CO)C(=O)NCC(=O)N[C@@H](C)C(=O)N1CCC[C@H]1C(=O)N1CCC[C@H]1C(=O)N1CCC[C@H]1C(=O)N[C@@H](CO)C(N)=O) [Example 288] | 21.3 | 6.74 | 66.7 | 0.666
YXEGTFTSDYSIXLDKKAQXEFIEYLIAGGPSSGAPPPS (Aib2, αMeL13, K17 conjugated to (2-[2-(2-Amino-ethoxy)-ethoxy]-acetyl)2-(γ-Glu)-CO-(CH2)18-CO2H, Aib20, C-terminal amide (NH2)) [Example 289] | 51.3 | 12.4 | 83.7 | 0.404
XXEGTFTSDYSIXLDEKAQXEFIEYLIAGGPSSGAPPPS (not fully specified; D-Tyr1, Aib2, αMeL13, K17 conjugated to (2-[2-(2-Amino-ethoxy)-ethoxy]-acetyl)2-(γ-Glu)-CO-(CH2)18-CO2H, Aib20, C-terminal amide (NH2)) [Example 342] | 20.7 | 35 | 77.2 | 0.414
XXEGTFTSDYSIXLDKKAQXEFIEYLIAGGPSSGAPPPS (D-Tyr1, Aib2, αMeL13, K17 conjugated to (2-[2-(2-Amino-ethoxy)-ethoxy]-acetyl)2-(γ-Glu)-CO-(CH2)18-CO2H, Aib20, C-terminal amide (NH2)) [Example 290] | 20 | 23.8 | 66.2 | 0.466
XXEGTXTSDYSIXLDKKAQXAFIEYLIEGGPSSGAPPPS (not fully specified; D-Tyr1, Aib2, αMeF(2F)6, αMeL13, K17 conjugated to (2-[2-(2-Amino-ethoxy)-ethoxy]-acetyl)2-(γ-Glu)-CO-(CH2)18-CO2H, Aib20, C-terminal amide (NH2)) [Example 336] | 82.5 | 7.78 | 90.2 | 0.377
XXEGTXTSDYSIXLDKKAQXAFIEYLIEGGPSSGAPPPS (not fully specified; D-Tyr1, Aib2, αMeF6, αMeL13, K17 conjugated to (2-[2-(2-Amino-ethoxy)-ethoxy]-acetyl)2-(γ-Glu)-CO-(CH2)18-CO2H, Aib20, C-terminal amide (NH2)) [Example 335] | 73 | 5.31 | 89.3 | 0.285
XXEGTFTSDYSIXLDKKAQXAFIEYLIAGGPSSGAPPPS (not fully specified; D-Tyr1, Aib2, αMeL13, K17 conjugated to (2-[2-(2-Amino-ethoxy)-ethoxy]-acetyl)2-(γ-Glu)-CO-(CH2)18-CO2H, Aib20, C-terminal amide (NH2)) [Example 340] | 20.1 | 10.7 | 67.4 | 0.45
YXEGTFTSDYSIXLDEKAQXAFIEYLIAGGPSSGAPPPS (Aib2, αMeL13, K17 conjugated to (2-[2-(2-Amino-ethoxy)-ethoxy]-acetyl)2-(γ-Glu)-CO-(CH2)18-CO2H, Aib20, C-terminal amide (NH2)) [Example 332] | 45.6 | 17.1 | 81.5 | 0.453
XXEGTFTSDYSIXLDEKAQXAFIEYLIAGGPSSGAPPPS (not fully specified; D-Tyr1, Aib2, αMeL13, K17 conjugated to (2-[2-(2-Amino-ethoxy)-ethoxy]-acetyl)2-(γ-Glu)-CO-(CH2)18-CO2H, Aib20, C-terminal amide (NH2)) [Example 341] | 21.9 | 18.8 | 78.9 | 0.496
FXEGTFTSDYSIXLDKKAQXAFIEYLIEGGPSSGAPPPS (Aib2, αMeL13, K17 conjugated to (2-[2-(2-Amino-ethoxy)-ethoxy]-acetyl)2-(γ-Glu)-CO-(CH2)18-CO2H, Aib20, C-terminal amide (NH2)) [Example 327] | 41.6 | 3.79 | 75.6 | 0.287
YXEGTFTSDYSIXLDKKAQXEFIEYLIAGGPSSGAPPPS (not fully specified; Aib2, αMeL13, K17 conjugated to (2-[2-(2-Amino-ethoxy)-ethoxy]-acetyl)-(γ-Glu)-CO-(CH2)18-CO2H, Aib20, C-terminal amide (NH2)) [Example 339] | 44 | 10.7 | 74.1 | 0.326
XXEGTFTSDYSIXLDKKAQXAFIEYLIEGGPSSGAPPPS (not fully specified; D-Tyr1, Aib2, αMeL13, K17 conjugated to (2-[2-(2-Amino-ethoxy)-ethoxy]-acetyl)2-(γ-Glu)-CO-(CH2)18-CO2H, Aib20, C-terminal amide (NH2)) [Example 334] | – | > 10300 | 70.2 | 0.432
YXEGTFTSDYSIXLDEKAQXEFIEYLIAGGPSSGAPPPS (Aib2, αMeL13, K17 conjugated to (2-[2-(2-Amino-ethoxy)-ethoxy]-acetyl)2-(γ-Glu)-CO-(CH2)18-CO2H, Aib20, C-terminal amide (NH2)) [Example 331] | 44.3 | 12.8 | 80.9 | 0.375
FXEGTFTSDYSIXLDKKAQXAFIEYLIAGGPSSGAPPPS (not fully specified; Aib2, αMeL13, K17 conjugated to (2-[2-(2-Amino-ethoxy)-ethoxy]-acetyl)2-(γ-Glu)-CO-(CH2)18-CO2H, Aib20, C-terminal amide (NH2)) [Example 337] | 34.1 | 17.4 | 59.5 | 0.322
YXEGTFTSDYSIXLDKKAQXEFIEYLIEGGPSSGAPPPS (Aib2, αMeL13, K17 conjugated to (2-[2-(2-Amino-ethoxy)-ethoxy]-acetyl)2-(γ-Glu)-CO-(CH2)18-CO2H, Aib20, C-terminal amide (NH2)) [Example 333] | 58.2 | 54.8 | 83.4 | 0.442
XXEGTXTSDYSILLDKKAQXAFIEYLIEGGPSSGAPPPS (D-Tyr1, Aib2, αMeF6, K17 conjugated to (2-[2-(2-Amino-ethoxy)-ethoxy]-acetyl)2-(γ-Glu)-CO-(CH2)18-CO2H, Aib20, C-terminal amide (NH2)) [Example 329] | 63.4 | 4.73 | 83.6 | 0.343
Y[Aib]EGTFTSDYSILLDEK([AEEA-AEEA-γGlu-C20 diacid])AQ[Aib]AFIEYLIAGGPSSGAPPPS-NH2 (N-terminus assumed; SMILES CC[C@H](C)[C@H](NC(=O)[C@H](CC(C)C)NC(=O)[C@H](Cc1ccc(O)cc1)NC(=O)[C@H](CCC(=O)O)NC(=O)[C@@H](NC(=O)[C@H](Cc1ccccc1)NC(=O)[C@H](C)NC(=O)C(C)(C)NC(=O)[C@H](CCC(N)=O)NC(=O)[C@H](C)NC(=O)[C@H](CCCCNC(=O)COCCOCCNC(=O)COCCOCCNC(=O)CC[C@H](NC(=O)CCCCCCCCCCCCCCCCCCC(=O)O)C(=O)O)NC(=O)[C@H](CCC(=O)O)NC(=O)[C@H](CC(=O)O)NC(=O)[C@H](CC(C)C)NC(=O)[C@H](CC(C)C)NC(=O)[C@@H](NC(=O)[C@H](CO)NC(=O)[C@H](Cc1ccc(O)cc1)NC(=O)[C@H](CC(=O)O)NC(=O)[C@H](CO)NC(=O)[C@@H](NC(=O)[C@H](Cc1ccccc1)NC(=O)[C@@H](NC(=O)CNC(=O)[C@H](CCC(=O)O)NC(=O)C(C)(C)NC(=O)[C@@H](N)Cc1ccc(O)cc1)[C@@H](C)O)[C@@H](C)O)[C@@H](C)CC)[C@@H](C)CC)C(=O)N[C@@H](C)C(=O)NCC(=O)NCC(=O)N1CCC[C@H]1C(=O)N[C@@H](CO)C(=O)N[C@@H](CO)C(=O)NCC(=O)N[C@@H](C)C(=O)N1CCC[C@H]1C(=O)N1CCC[C@H]1C(=O)N1CCC[C@H]1C(=O)N[C@@H](CO)C(N)=O) [Example 330] | – | > 10900 | 47.8 | 1.05
